Measurements as given in paper PMC5979328, “Establishing a Split Luciferase Assay for Proteinkinase G (PKG) Interaction Studies” (International Journal of Molecular Sciences, 2018).

B1: CBRN-RGS2 (regulator of G-protein signaling 2 fused at its N-terminus to the N-terminal fragment of click beetle red luciferase) (natural protein, UniProt P41220 1-211, looked up)
chain: MQSAMFLAVQHDCRPMDKSAGSGHKSEEKREKMKRTLLKDWKTRLSYFLQNSSTPGKPKTGKKSKQQAFIKPSPEEAQLWSEAFDELLASKYGLAAFRAFLKSEFCEENIEFWLACEDFKKTKSPQKLSSKARKIYTDFIEKEAPKEINIDFQTKTLIAQNIQEATSGCFTTAQKRVYSLMENNSYPRFLESEFYQDLCKKPQITTEPHAT
notes: regulator of G-protein signaling 2 (RGS2); cDNA from pCMV6_RGS2 (OriGene); source: COS-7 cells, calcium phosphate transfection, in living cells; not shown: CBRN (click beetle red luciferase aa 1-416; joined by a 17-residue Gly/Ser linker), N-terminal, kept
B2: cGKIα in primary mesangial cells (enzyme, UniProt P0C605 1-671, looked up)
chain: MSELEEDFAKILMLKEERIKELEKRLSEKEEEIQELKRKLHKCQSVLPVPSTHIGPRTTRAQGISAEPQTYRSFHDLRQAFRKFTKSERSKDLIKEAILDNDFMKNLELSQIQEIVDCMYPVEYGKDSCIIKEGDVGSLVYVMEDGKVEVTKEGVKLCTMGPGKVFGELAILYNCTRTATVKTLVNVKLWAIDRQCFQTIMMRTGLIKHTEYMEFLKSVPTFQSLPDEILSKLADVLEETHYENGEYIIRQGARGDTFFIISKGQVNVTREDSPSEDPVFLRTLGKGDWFGEKALQGEDVRTANVIAAEAVTCLVIDRDSFKHLIGGLDDVSNKAYEDAEAKAKYEAEAAFFANLKLSDFNIIDTLGVGGFGRVELVQLKSEESKTFAMKILKKRHIVDTRQQEHIRSEKQIMQGAHSDFIVRLYRTFKDSKYLYMLMEACLGGELWTILRDRGSFEDSTTRFYTACVVEAFAYLHSKGIIYRDLKPENLILDHRGYAKLVDFGFAKKIGFGKKTWTFCGTPEYVAPEIILNKGHDISADYWSLGILMYELLTGSPPFSGPDPMKTYNIILRGIDMIEFPKKIAKNAANLIKKLCRDNPSERLGNLKNGVKDIQKHKWFEGFNWEGLRKGTLTPPIIPSVASPTDTSNFDSFPEDSDEPPPDDNSGWDIDF
notes: cGMP-dependent protein kinase I, alpha isoform, in primary mesangial cells; also called the kinase; PKGIα

Legend:
[1] = target: T1, cGKIα-CBRC (proteinkinase G isoform Iα fused at its C-terminus to the C-terminal fragment of click beetle red … (UniProt P00516 1-671)); experiment: split reporter (BiFC, NanoBiT); click beetle red luciferase complementation (CBRN/CBRC) in co-transfected COS-7 cells, 15 µg DNA, vector ratios 1:25 to 1:100 (mostly 1:50); cells untreated or stimulated for 24 h with 8-Br-cGMP (0.5-2.5 mM), 8-pCPT-cGMP (100-500 µM) or 8-Br-cAMP (0.125-1 mM); Bright-Glo reagent, plate reader, RLU; settings: partners not purified
T1 construct: cGMP-dependent protein kinase I, alpha isoform (cGKIα, PKGIα); also called PKGIα; cGMP dependent kinase Iα; source: COS-7 cells, calcium phosphate transfection, in living cells; not shown: CBRC (click beetle red luciferase aa 395-542; joined by a 17-residue Gly/Ser linker), C-terminal, kept
T1 sequence (looked up): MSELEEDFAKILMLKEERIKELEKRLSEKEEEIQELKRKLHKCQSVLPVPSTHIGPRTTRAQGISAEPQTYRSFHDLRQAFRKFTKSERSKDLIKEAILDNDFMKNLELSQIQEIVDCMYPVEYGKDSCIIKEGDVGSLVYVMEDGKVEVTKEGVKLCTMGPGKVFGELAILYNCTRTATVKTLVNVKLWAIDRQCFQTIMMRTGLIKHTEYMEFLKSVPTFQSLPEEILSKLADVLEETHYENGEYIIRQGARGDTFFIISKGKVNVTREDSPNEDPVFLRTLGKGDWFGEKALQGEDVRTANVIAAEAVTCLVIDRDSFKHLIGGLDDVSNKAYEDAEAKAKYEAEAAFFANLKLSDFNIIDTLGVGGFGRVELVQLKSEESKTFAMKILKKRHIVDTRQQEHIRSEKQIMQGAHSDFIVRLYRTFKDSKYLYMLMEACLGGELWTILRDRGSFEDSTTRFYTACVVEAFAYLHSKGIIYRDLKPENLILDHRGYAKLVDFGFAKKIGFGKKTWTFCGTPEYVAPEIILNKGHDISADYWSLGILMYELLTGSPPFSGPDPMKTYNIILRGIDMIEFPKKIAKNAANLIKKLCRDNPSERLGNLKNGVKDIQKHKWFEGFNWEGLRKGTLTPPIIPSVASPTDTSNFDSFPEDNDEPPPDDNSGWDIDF

[2] = target: the molecule itself; experiment: Western blot of monomer and dimer under non-reducing conditions; primary mesangial cells, control or stimulated with H2O2, non-reducing conditions (Figure S3)

Binder | fold signal amplification (100 µM 8-pCPT-cGMP, treated/untreated) [1] [fold] | fold signal amplification (200 µM 8-pCPT-cGMP, treated/untreated) [1] [fold] | fold signal amplification (0.5 mM 8-Br-cGMP, treated/untreated) [1] [fold] | fold signal amplification (500 µM 8-pCPT-cGMP, treated/untreated) [1] [fold] | fold signal amplification (1 mM 8-Br-cGMP, 24 h, against basal luminescence) [1] [fold] | fold signal amplification (1 mM 8-Br-cGMP, treated/untreated) [1] [fold] | fold signal amplification (2.5 mM 8-Br-cGMP, treated/untreated) [1] [fold] | stoichiometry N [2]
B1 | 3.5 | 3.8 | 2.2 | 3.9 | ~3.5 | 3.6 | 2.8 | 
B2 |  |  |  |  |  |  |  | 2
